In the Human Domainome abundance scans (Beltran et al. 2025):
± gives the uncertainty stated by the source.

B1: Peripheral plasma membrane protein CASK, residues 488 to 569; numbered along this chain, O14936 (parent)
chain: VRLVQFQKNTDEPMGITLKMNELNHCIVARIMHGGMIHRQGTLHVGDEIREINGISVANQTVEQLQKMLREMRGSITFKIVP

Variants of: B1
Test: abundance fitness (aPCA) (normalised: wild type 0, dead -1); higher = more abundant; growth selection in yeast, the domain comes from the species named
Details: Homo sapiens
R70V gave an abundance fitness of -0.018 ± 0.023. For R70N, the abundance fitness was -0.024 ± 0.041. With H44N the abundance fitness was -0.029 ± 0.037. Variant H44E has an abundance fitness of 0.02 ± 0.035. H44W showed an abundance fitness of -0.281 ± 0.03. With H44D the abundance fitness was -0.021 ± 0.031. H44M showed an abundance fitness of -0.024 ± 0.03. Work on I55F yielded an abundance fitness of -0.065 ± 0.047. Variant V28K has an abundance fitness of -1.16 ± 0.12. Work on V28C yielded an abundance fitness of -0.272 ± 0.036. V28S gave an abundance fitness of -0.867 ± 0.063. With K79C the abundance fitness was -0.053 ± 0.054. Work on K79S yielded an abundance fitness of 0.014 ± 0.033. For K79T, the abundance fitness was -0.06 ± 0.031. Variant K79D has an abundance fitness of -0.27 ± 0.071. Work on H25C yielded an abundance fitness of -0.013 ± 0.031. H25D gave an abundance fitness of -0.163 ± 0.037. For H25G, the abundance fitness was -0.046 ± 0.021. In the case of H25F, the abundance fitness is reported as -0.194 ± 0.05. Work on H25Y yielded an abundance fitness of -0.102 ± 0.047. With H25Q the abundance fitness was 0.019 ± 0.03. E71F showed an abundance fitness of 0.013 ± 0.051. E71D showed an abundance fitness of 0.007 ± 0.046. With T77C the abundance fitness was -0.058 ± 0.051. For T77D, the abundance fitness was -0.061 ± 0.065. T77A showed an abundance fitness of -0.028 ± 0.039. T77W gave an abundance fitness of -0.014 ± 0.048. Work on T77Y yielded an abundance fitness of -0.112 ± 0.078. Work on V62C yielded an abundance fitness of -0.044 ± 0.032. In the case of V62A, the abundance fitness is reported as -0.007 ± 0.023. For V62P, the abundance fitness was -0.032 ± 0.031. In the case of V62D, the abundance fitness is reported as -0.031 ± 0.031. Variant V62Q has an abundance fitness of -0.068 ± 0.034. Work on V62L yielded an abundance fitness of -0.018 ± 0.025. With V62I the abundance fitness was -0.025 ± 0.042. V62N gave an abundance fitness of 0.01 ± 0.047. S75I gave an abundance fitness of -0.116 ± 0.046. In the case of L3W, the abundance fitness is reported as -0.113 ± 0.026. For L3E, the abundance fitness was 0.094 ± 0.029. For L3T, the abundance fitness was 0.033 ± 0.034. For R30H, the abundance fitness was 0.037 ± 0.057. Work on R30E yielded an abundance fitness of 0.027 ± 0.036. Variant R30P has an abundance fitness of -1.11 ± 0.23. With R30W the abundance fitness was -0.114 ± 0.034. Work on R30N yielded an abundance fitness of 0.012 ± 0.063. Work on R30M yielded an abundance fitness of -0.112 ± 0.046. R30S gave an abundance fitness of -0.007 ± 0.033. With L69H the abundance fitness was -0.777 ± 0.097. L69G gave an abundance fitness of -0.443 ± 0.027. In the case of L69D, the abundance fitness is reported as -0.73 ± 0.073. With L69K the abundance fitness was -0.9 ± 0.074. P82L showed an abundance fitness of -0.214 ± 0.053. P82V gave an abundance fitness of -0.089 ± 0.056. Work on P82T yielded an abundance fitness of -0.042 ± 0.049. For P82H, the abundance fitness was -0.151 ± 0.097. With M14K the abundance fitness was -0.784 ± 0.1. Variant M14R has an abundance fitness of -0.858 ± 0.078. M14S gave an abundance fitness of -0.149 ± 0.033. With M14Y the abundance fitness was -0.206 ± 0.049. With M14I the abundance fitness was 0.055 ± 0.037. In the case of Q40F, the abundance fitness is reported as -0.103 ± 0.041. Work on Q40V yielded an abundance fitness of -0.065 ± 0.021. With G74M the abundance fitness was -0.806 ± 0.077. G74V gave an abundance fitness of -0.716 ± 0.036. G74F showed an abundance fitness of -0.51 ± 0.078. Work on G74P yielded an abundance fitness of -0.524 ± 0.046. Work on V81Y yielded an abundance fitness of -0.035 ± 0.038. In the case of V81P, the abundance fitness is reported as -0.658 ± 0.08. Variant V81E has an abundance fitness of -0.104 ± 0.046. In the case of V81H, the abundance fitness is reported as -0.073 ± 0.041. In the case of G46Q, the abundance fitness is reported as -0.61 ± 0.084. G46F gave an abundance fitness of -0.75 ± 0.17. G46D showed an abundance fitness of -0.22 ± 0.04. Variant G46N has an abundance fitness of -0.128 ± 0.072. Variant G46K has an abundance fitness of -0.706 ± 0.077. For A29T, the abundance fitness was -0.069 ± 0.054. Variant A29W has an abundance fitness of -0.068 ± 0.037. Work on A29R yielded an abundance fitness of -0.097 ± 0.03. A29Q gave an abundance fitness of -0.008 ± 0.044. A29H gave an abundance fitness of -0.013 ± 0.078. A29S showed an abundance fitness of -0.051 ± 0.038. With A29P the abundance fitness was -0.936 ± 0.15. For I27D, the abundance fitness was -1.05 ± 0.1. I27K gave an abundance fitness of -0.175 ± 0.038. For I27V, the abundance fitness was -0.045 ± 0.023. In the case of L43H, the abundance fitness is reported as -0.97 ± 0.16. L43Y gave an abundance fitness of -0.733 ± 0.11. For L43E, the abundance fitness was -0.774 ± 0.049. For L43A, the abundance fitness was -0.722 ± 0.04. For I37P, the abundance fitness was -0.42 ± 0.044. I37N showed an abundance fitness of -0.391 ± 0.059. For I37H, the abundance fitness was -0.294 ± 0.05. I37T gave an abundance fitness of -0.129 ± 0.029. Variant Q5A has an abundance fitness of 0.07 ± 0.023. Work on Q5Y yielded an abundance fitness of -0.024 ± 0.031. With Q5I the abundance fitness was -0.068 ± 0.03. In the case of Q5G, the abundance fitness is reported as 0 ± 0.023. Work on Q5V yielded an abundance fitness of 0.029 ± 0.023. S56K gave an abundance fitness of 0.02 ± 0.033. For S56M, the abundance fitness was -0.102 ± 0.036. In the case of S56R, the abundance fitness is reported as -0.052 ± 0.021. With N53K the abundance fitness was -0.816 ± 0.12. N53I gave an abundance fitness of -0.8 ± 0.21. Variant N53Q has an abundance fitness of -0.186 ± 0.061. Variant N53V has an abundance fitness of -0.932 ± 0.084. In the case of N53E, the abundance fitness is reported as -0.327 ± 0.039. Variant N53R has an abundance fitness of -0.529 ± 0.043. For N53H, the abundance fitness was -0.7 ± 0.13. Q60P gave an abundance fitness of -0.984 ± 0.072. With Q60C the abundance fitness was -0.01 ± 0.033. In the case of Q60H, the abundance fitness is reported as -0.014 ± 0.042. In the case of Q60Y, the abundance fitness is reported as -0.022 ± 0.045. Work on Q60F yielded an abundance fitness of 0.013 ± 0.041. In the case of Q60N, the abundance fitness is reported as 0.005 ± 0.043. Variant M36F has an abundance fitness of 0.119 ± 0.082. In the case of M36R, the abundance fitness is reported as -0.092 ± 0.028. V1D showed an abundance fitness of 0.055 ± 0.039. Work on V1F yielded an abundance fitness of -0.026 ± 0.049. Variant V1P has an abundance fitness of -0.376 ± 0.11. Work on V57H yielded an abundance fitness of -0.818 ± 0.096. In the case of V57L, the abundance fitness is reported as -0.126 ± 0.024. Work on V57R yielded an abundance fitness of -0.973 ± 0.038. With V57Q the abundance fitness was -0.8 ± 0.051. For V57Y, the abundance fitness was -0.578 ± 0.072. With V57E the abundance fitness was -0.965 ± 0.048. Variant V57D has an abundance fitness of -0.915 ± 0.076. Work on V57K yielded an abundance fitness of -0.745 ± 0.052. M32P gave an abundance fitness of -0.109 ± 0.051. Work on M32K yielded an abundance fitness of 0.042 ± 0.039. For E51C, the abundance fitness was -0.34 ± 0.25. Variant E51L has an abundance fitness of -0.442 ± 0.39. With E51R the abundance fitness was -0.264 ± 0.2. Work on I52V yielded an abundance fitness of -0.036 ± 0.12. For I52T, the abundance fitness was -0.141 ± 0.17. In the case of I16P, the abundance fitness is reported as -0.765 ± 0.13. Work on I16L yielded an abundance fitness of 0.088 ± 0.036. For I16S, the abundance fitness was -1.08 ± 0.15. In the case of I16E, the abundance fitness is reported as -0.932 ± 0.13. Work on I16F yielded an abundance fitness of 0.109 ± 0.064. Variant E48F has an abundance fitness of -0.362 ± 0.15. For E48Q, the abundance fitness was -0.069 ± 0.051. Variant E48S has an abundance fitness of -0.071 ± 0.04. E48P showed an abundance fitness of -1.09 ± 0.24. In the case of E48R, the abundance fitness is reported as -0.037 ± 0.028. For E48N, the abundance fitness was -0.326 ± 0.082. M68A gave an abundance fitness of -0.02 ± 0.025. Variant M68G has an abundance fitness of -0.048 ± 0.024. With M68K the abundance fitness was 0 ± 0.031. For M68I, the abundance fitness was -0.068 ± 0.053. In the case of M68Y, the abundance fitness is reported as -0.045 ± 0.051. Variant M68Q has an abundance fitness of -0.014 ± 0.033. M68D gave an abundance fitness of 0.054 ± 0.04. Variant M68H has an abundance fitness of -0.019 ± 0.04. Work on E12R yielded an abundance fitness of -0.143 ± 0.027. For E12I, the abundance fitness was -0.09 ± 0.094. Work on E12D yielded an abundance fitness of -0.101 ± 0.05. E12F showed an abundance fitness of -0.231 ± 0.076. E12H gave an abundance fitness of -0.154 ± 0.07. E12P gave an abundance fitness of -0.757 ± 0.15. For F78R, the abundance fitness was -0.812 ± 0.071. With F78T the abundance fitness was -0.677 ± 0.066. Work on F78N yielded an abundance fitness of -0.922 ± 0.16. For F78Y, the abundance fitness was -0.524 ± 0.064. In the case of F78W, the abundance fitness is reported as -0.484 ± 0.074. F78Q gave an abundance fitness of -1.22 ± 0.42. Variant F78M has an abundance fitness of 0.052 ± 0.1. Variant F78S has an abundance fitness of -0.839 ± 0.065.
